Test results taken from article PMC7911018 (2021).
One block for each binder: values may come before it.

Target: HER2 ectodomain-Fc (96 kDa) (human, UniProt P04626 23-652)
Experiment: SPR

Kd: 8.1 nM
B1: VHH A10 (anti-HER2 nanobody) (VHH)
VHH: DVQLQASGGGFVQPGGSLRLSCAASGATSNISNMGWFRQAPGKEREFVSAISRAESRPLYYADSVKGRFTISRDNSKNTVYLQMNSLRAEDTATYYCAYMPLVRHKAYWGQGTQVTVSS

Kd: 40.5 nM
B2: A10C (A10 CDRs grafted into the C8WT scaffold) (VHH)
VHH: DVQLQASGGGLAQPGGSLRLSCAASCDRMYWVRQAPGKGLEWVSSCDRYYADSVKGRFTISRDNAKNTLYLQMNSLKLEDTALYFCACDRGQGTQVTVSS
